According to article doi:10.1101/826115:

Target: Respiratory complex I (mouse (endogenous in mouse tissues and L929 cells)) (UniProt Q9DC69)
Assay: Blue-DiS complexome profiling

Sequence of UniProt Q9DC69 (Q9DC69 whole entry, looked up, one chain of several): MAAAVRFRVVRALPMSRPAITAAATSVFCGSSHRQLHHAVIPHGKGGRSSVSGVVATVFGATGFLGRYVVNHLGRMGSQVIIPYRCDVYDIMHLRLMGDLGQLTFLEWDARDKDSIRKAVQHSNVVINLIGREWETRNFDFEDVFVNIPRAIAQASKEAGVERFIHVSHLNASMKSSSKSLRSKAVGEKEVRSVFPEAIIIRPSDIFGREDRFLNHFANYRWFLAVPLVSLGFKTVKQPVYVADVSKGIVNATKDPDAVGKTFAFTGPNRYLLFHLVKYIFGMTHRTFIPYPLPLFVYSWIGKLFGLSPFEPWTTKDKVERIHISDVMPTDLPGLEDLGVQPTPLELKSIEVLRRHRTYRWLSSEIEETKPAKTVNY

Row | Substance | stoichiometry N
1 | Respiratory complex III dimer (from UniProt Q9DB77 15-453) | 2 CIII:CI
2 | Respiratory complex IV (from UniProt P00397 1-514) | 1 CI:CIV
